1 sequence from article doi:10.1101/2021.09.17.460839 can be followed below.

Positions count from the first letter of the chain named. pKd: −log10 of the molar value.

The term pKd denotes the negative decadic logarithm of the Kd, by convention in mol/L. Read a high pKd as a low Kd.

For data set [1], the target named is T1, Rv0792c G80D G80D (Mycobacterium tuberculosis) (UniProt O86331).
T1 sequence: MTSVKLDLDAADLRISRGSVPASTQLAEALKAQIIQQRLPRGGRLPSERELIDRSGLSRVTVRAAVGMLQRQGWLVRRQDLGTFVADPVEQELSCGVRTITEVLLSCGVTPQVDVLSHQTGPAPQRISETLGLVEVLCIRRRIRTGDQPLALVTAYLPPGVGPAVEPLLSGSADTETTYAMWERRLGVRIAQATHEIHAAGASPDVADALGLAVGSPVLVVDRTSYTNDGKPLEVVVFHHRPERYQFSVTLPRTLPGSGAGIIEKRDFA
Briefly: ALISA.

Data set [2] deals with T2, Rv0792c R49A R49A (Mycobacterium tuberculosis) (UniProt O86331).
T2 sequence: T1 sequence with R49A, D80G
Briefly: ALISA.

For “TCTAGTCATTCGTCATAATCCCATCTGTTTCTTCCTCCTTCCGT [Rv0792c_2 aptamer (printed Rv0729c_2)]”, the negative logarithm of the Kd (pKd) in data set [1] is 6.92; in data set [2] it was 7.13.
